In article PMC7726437 (2020):

Experiments:
Experiment in all cases: BLI
[1] = target: T1, anti-idiotype vNAR-Fc variant S9 (bamboo shark, biotin (EZ-Link Sulfo-NHS-LC-Biotin) in the cellular binding assay only)
T1 chain: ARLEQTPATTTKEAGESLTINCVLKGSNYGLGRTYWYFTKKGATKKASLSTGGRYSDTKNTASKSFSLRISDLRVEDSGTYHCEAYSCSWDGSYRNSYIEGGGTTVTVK

[2] = target: T2, anti-idiotype vNAR-Fc variant S2 (bamboo shark, biotin (EZ-Link Sulfo-NHS-LC-Biotin) in the cellular binding assay only)
T2 chain: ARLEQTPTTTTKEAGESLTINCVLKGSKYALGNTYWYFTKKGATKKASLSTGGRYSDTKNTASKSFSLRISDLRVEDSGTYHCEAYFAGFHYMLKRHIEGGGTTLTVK

[3] = target: T3, anti-idiotype vNAR-Fc variant S4 (bamboo shark)
T3 chain: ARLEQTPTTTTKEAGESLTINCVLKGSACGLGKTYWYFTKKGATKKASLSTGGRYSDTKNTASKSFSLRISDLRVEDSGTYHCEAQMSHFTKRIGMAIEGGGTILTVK

[4] = target: T4, anti-idiotype vNAR-Fc variant S7 (bamboo shark)
T4 chain: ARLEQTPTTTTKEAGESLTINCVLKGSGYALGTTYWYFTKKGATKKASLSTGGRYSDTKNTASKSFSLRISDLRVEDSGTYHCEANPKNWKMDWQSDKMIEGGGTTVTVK

Kd [1]: 11 nM
Kd [2]: 4.5 nM
Kd [3]: 5.3 nM
Kd [4]: 1.9 nM
B1: soluble recombinant B-cell receptor (BCR) of lymphoma cell line SUP-B8, produced as full-length IgG (antibody, V domains shown)
VH: LVQSGGEVKKPGASVKVSCKASGYTFHSYGITWVRQAPGQGLEWMGWINGYNGYTNYAQKLQDRVTMTTNTSTNTVYMEVRSLRSDDTAVYYCARDDCSGDNCYMSAYWGQGTVVTVSS
VL: QSVLTQPPSASGTPGQRVTISCSGSSSNIASNYVYWYQQLPGMAPKLLIYRDNQRPSGVPDRFSGSRSGTSASLAISGLRSDDEADYYCATWDDSLSGWVFGGGTKLTVL
